Measured values: patent US20240317851A1 (LANOVA MEDICINES, published 2024)
Read-outs that look alike come from different tables or passages of the source.

T1: human Claudin 6 (human, UniProt P56747 1-220)
T1 sequence (looked up): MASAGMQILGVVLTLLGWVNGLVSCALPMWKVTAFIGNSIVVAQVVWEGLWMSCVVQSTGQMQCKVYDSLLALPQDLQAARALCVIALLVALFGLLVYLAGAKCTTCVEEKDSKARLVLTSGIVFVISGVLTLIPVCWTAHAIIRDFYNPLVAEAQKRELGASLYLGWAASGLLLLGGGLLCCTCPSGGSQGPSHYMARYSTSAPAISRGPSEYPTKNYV

T2: human Claudin 9 (human, UniProt O95484 1-217)
T2 construct: whole, on cells; also called CLDN9; CLND9
T2 sequence (looked up): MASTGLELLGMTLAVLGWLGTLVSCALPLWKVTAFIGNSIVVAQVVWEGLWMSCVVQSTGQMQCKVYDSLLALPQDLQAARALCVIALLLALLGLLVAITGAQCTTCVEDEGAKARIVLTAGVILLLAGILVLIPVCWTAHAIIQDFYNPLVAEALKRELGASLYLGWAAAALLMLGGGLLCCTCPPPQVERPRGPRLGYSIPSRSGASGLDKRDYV

T3: human Claudin 3 (human, UniProt O15551 1-220)
T3 construct: whole, on cells; also called CLDN3
T3 sequence (looked up): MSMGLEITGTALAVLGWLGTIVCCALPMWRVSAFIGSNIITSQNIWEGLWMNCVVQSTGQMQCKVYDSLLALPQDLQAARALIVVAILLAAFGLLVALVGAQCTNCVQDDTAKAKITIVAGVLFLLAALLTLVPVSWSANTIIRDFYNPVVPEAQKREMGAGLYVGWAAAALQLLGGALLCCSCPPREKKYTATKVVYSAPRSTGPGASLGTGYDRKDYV


Legend:
human Claudin 6 [1] = target: T1, human Claudin 6; assay: flow cytometry, OVCAR3 cells (endogenous CLDN6), Ab titrated from 100 nM
Procedure: In this example, FACS binding of chimeric Abs to Ovcar3 and Ov90 cells with claudin 6 endogenous expression were assessed using flow cytometry.
(§1) Claudin 6 endogenous expression cell line were incubated with chimeric Abs (from 100 nM, 6-fold dilution, 8 points) for 60 minutes at 4° C. Cells were pelleted and washed twice with 2% FBS/PBS buffer, and stained with fluorescent conjugated secondary antibody at 4° C. for 30 minutes. After that the cells were washed twice and resuspended in 80 μL of 2% FBS/PBS buffer. Fluorescent signal of binding was detected using Agilent. The EC50 was calculated using the GraphPad software.

human Claudin 9 [2] = target: T2, human Claudin 9; assay: flow cytometry, HEK293/H_CLDN9 cells, Ab titrated from 100 nM
human Claudin 3 [3] = target: T3, human Claudin 3; assay: flow cytometry, CHOK1/H_CLDN3 cells, Ab titrated from 100 nM
Procedure: (§2) In this example, cell-based binding of hu Abs on human CLDN3 expressing cells were assessed using flow cytometry.
(§3) Briefly, the CHOK1/H_CLDN3 cells were incubated with hu-Abs (from 100 nM, 6 folds dilution, 8 points). After incubation at 4° C. for 60 minutes. Cells were pelleted and washed twice with 2% FBS/PBS buffer, and stained with fluorescent conjugated secondary antibody at 4° C. for 30 minutes. After that the cells were washed twice and resuspended in 80 μL of 2% FBS/PBS buffer. Fluorescent signal of binding was detected using Agilent. The EC50 was calculated using the GraphPad software.

human Claudin 6 [4] = target: T1, human Claudin 6; assay: flow cytometry, HEK293/H_CLDN6 cells, Ab titrated from 100 nM
Procedure: (§4) In this example, cell based binding of chimeric Abs on human CLDN6 & CLND9 over-expressing cell line were assessed using flow cytometry.
as §1, with “Briefly, the cells” for “Claudin 6 endogenous expression cell line”, “software (LaJolla, CA).” for “software.”

human Claudin 9 [5] = target: T2, human Claudin 9; assay: flow cytometry, HEK293/H_CLDN9 cells, Ab titrated from 100 nM; remark: listed apart in the source
Procedure: as §4
as §1, with “Briefly, the cells” for “Claudin 6 endogenous expression cell line”, “software (LaJolla, CA).” for “software.”

human Claudin 6 [6] = target: T1, human Claudin 6; assay: cell-based or functional assay
human Claudin 6 [7] = target: T1, human Claudin 6; assay: cell-based or functional assay; remark: listed apart in the source
human Claudin 3 [8] = target: T3, human Claudin 3; assay: flow cytometry, CHOK1/H_CLDN3 cells
Procedure: as §2, §3

human Claudin 6 [9] = target: T1, human Claudin 6; assay: flow cytometry, HEK293/H_CLDN6 cells, Ab titrated from 100 nM; remark: listed apart in the source
Procedure: In this example, cell-based binding of humanized antibodies (hu Abs) on human CLDN6 expressing cells were assessed using flow cytometry.
as §3, with “HEK293/H_CLDN6” for “CHOK1/H_CLDN3”

Molecule | Top MFI (human Claudin 9 [2]) | Top MFI (human Claudin 3 [3]) | Top MFI (human Claudin 6 [4]) | Top MFI (human Claudin 9 [5]) | further results
hIgG1 Isotype (antibody) | 140 | 128 |  |  | Top MFI (human Claudin 6 [1]): 126; Top MFI (human Claudin 6 [1]; record 2): 101
59-H12C5 (antibody, V domains shown, Tested as chimeric antibody) VH: EVQLVESGGGLVQPGGSLKLSCAASGFTFSSHGMSWVRQTADRGLELVASINSNGGRTYYPDSMKGRFTISRDNAKNTLYLQLSSLQPEDTALYYCACYYDNTYYAMDYWGQGTSLTVSS VL: QIVLTQSPAIMSASLGERVTMTCTASSSVSSSSLHWYQQKPGSSPKLWIYTTSTLASGVPARFSGSGSGTSYSLTISSMEAEDAATYYCHQYHRSPPTFGGGTKLEIK |  |  | 379000 | 341000 | 
67-C12E11 (antibody, V domains shown, Tested as chimeric antibody) VH: EVQLQQSGPELVKPGASVKISCKTSGYTFTEYTMHWVKQSHGKSLEWIGGINPNNGGTSYNQKFKGKATLTVDKSSSTAYMELRSLTSEDSAVYYCARGMVVAFYFDSWGQGTTLTVSS VL: DIQMTQSPASQSASLGESVTITCLASQTIGSWLAWYQQKPGKSPQLLIYAATSLADGVPSRFSGSGSGTKFSFKISSLQAEDFVSYYCQQLYSTPYTFGGGTKLEIK |  |  | 161000 | 28800 | Inhibition Rate (%) (HEK293/H_CLDN6) (human Claudin 6 [6]): 83.9%; Top MFI (human Claudin 6 [1]): 165; internalization Top RLU (HEK293/H_CLDN6) (human Claudin 6 [7]): 446000 RLU
59-A2E6 (antibody, V domains shown, Tested as chimeric antibody) VH: EVQLQQSGPELVKPGASVKISCKTSGYTFTEYTMHWVKQSHGKSLEWIGGINPKNGGTSYNQKFKGKATLTVDKSSSTVYMEFRSLTTEDSAVYYCARGMLVAFYFDCWGQGTTLTVSS VL: DIQMTQSPASQSASLGESVTITCLASQTIGTWLAWYQQKPGKSPQLLIYAATSLADGVPSRFSGSGSGTKFSFKISSLQAEDFVSYYCQQLYSTPYTFGGGTKLEIK |  |  | 264000 | 102000 | 
81-H10F8 (antibody, V domains shown, Tested as chimeric antibody) VH: EVQLQQSGPELVKPGASVKISCKTSGYTFTEYTMHWVKQSHGKSLEWIGGINPNNGGTSYNQKFKGKATLTVDKSSRTAYMELRSLTSEDSAVYYCARGMVVAFYFDCWGQGTTLTVSS VL: DIQMTQSPASQSASLGESVTITCLASQTIGTWLAWYQQKPGKSPQLLIYAATGLADGVPSRFSGGGSGTKFSFKISSLQVEDFVSYYCQQLYSTPYTFGGGTKLEIK |  |  | 257000 | 105000 | 
85-H10A5 (antibody, V domains shown, Tested as chimeric antibody) VH: EVQLQQSGPELVKPGASVKISCKTSGYTFTEYPMHWVKQSHEKSLEWIGGINPKNGDANSNQKFKGKATLTVDKSSSTAYMELRSLTSEDSAVYYCARGWLLLFDVWGAGTMVTVSS VL: DIQMTQSSSSFSVSLGDRVTISCKASEDIYNRLAWYQQKPGNAPRLLISGATSLETGIPSRFSGSGSGKDYTLSITTLQTEDVAAYYCQQYWSSPLTFGAGTKLELR |  |  | 285000 | 113000 | 
23-B2F11 (antibody, V domains shown, Tested as chimeric antibody) VH: EVQLQQSGPELVKPGASVKISCKTSGYTFTEYTMHWVKQSHGRSLEWIGGINPNNGDTIYNQKFKGKATLTVDKSSSTAYMELRSLTSEDSAVYYCARRGGYGNFNFDYWGQGTTLTVSS VL: DIQMTQSSSSFSVSLRDRVTITCKASEDIYNRLAWYQQKPGNAPRLLISGATSLETGVPSRFSGSGSGKDYTLSITSLQTEDVATYYCQQYWSSPYTFGGGTKVEIK |  |  | 117000 | 93300 | 
97-C10E1-2-P1.z9 (antibody, V domains shown) VH: QVQLQQSGAEVKKPGASVKVSCKASGYAFTGYTMNWVRQAPGQNLEWIGLSNPYNAGTIYNQKFKGRVTLTVDKSTSTVYMELLSLRSEDTAVYYCARNYYYGSSYAYYYAMDYWGQGTTVTVSS VL: DAQMTQSPSSLSASVGDRVTITCRSSTGAVTTSNYANWVQQKPGKAFKGLIGGTNNRAPGVPARFSGSLSGTDAALTISSLQPEDFATYFCALWYSNHWVFGGGTKVEIK | 5810 | 297 |  |  | binding result (human Claudin 3 [8]): no binding (tested: 100 nM (highest concentration tested)); Top MFI (human Claudin 6 [9]): 159000
97-C10E1-2-P1.z4 (antibody, V domains shown) VH: QVQLVQSGAEVKKPGASVKVSCKASGYAFTGYTMNWVRQAPGQGLEWIGLSNPYNAGTIYNQKFKGRVTMTVDKSTSTVYMELSSLRSEDTAVYYCARNYYYGSSYAYYYAMDYWGQGTTVTVSS VL: DAQMTQSPSSLSASVGDRVTITCRSSTGAVTTSNYANWVQQKPGKAFKGLIGGTNNRAPGVPARFSGSLSGTDAALTISSLQPEDFATYFCALWYSNHWVFGGGTKVEIK | 9160 | 263 |  |  | binding result (human Claudin 3 [8]): no binding (tested: 100 nM (highest concentration tested)); Top MFI (human Claudin 6 [9]): 185000
97-C10E1-2-P1.z7 (antibody, V domains shown) VH: QVQLQQSGAEVKKPGASVKVSCKASGYAFTGYTMNWVRQAPGQNLEWIGLSNPYNAGTIYNQKFKGRVTLTVDKSTSTVYMELLSLRSEDTAVYYCARNYYYGSSYAYYYAMDYWGQGTTVTVSS VL: EAVVTQSPATLSVSPGERATLSCRSSTGAVTTSNYANWVQEKPGQAFRGLIGGTNNRAPGIPARFSGSLSGDEATLTISSLQSEDFAVYFCALWYSNHWVFGGGTKVEIK | 1660 | 249 |  |  | binding result (human Claudin 3 [8]): no binding (tested: 100 nM (highest concentration tested)); Top MFI (human Claudin 6 [9]): 181000
36-E6A6 (antibody, V domains shown, Tested as chimeric antibody) VH: QVQLQQSGGEVVRPGTSVKVSCKASGYAFTNNLIEWVKQRPGQGLEWIGVIHPGSGGSNYNEKFKNKATLTTDKSSSTAYIQLSSLTSDDSAVYFCARRGRDYAMDYWGQGTSVTVSS VL: EIVLTQSPAIMSASLGEKVTMSCRASSSVNSIYWYQQKSDASPKLWIYYTSNLAPGVPARFSGSGSGNSYSLTIRSMEGEDAATYYCQQFTSSPLTFGAGTKLELK |  |  | 62100 |  | 
83-F6A6 (antibody, V domains shown, Tested as chimeric antibody) VH: QVQLQQSAPELARPGASVRMSCKASGYTFTTYTMHWVKQRPGQGLEWIGFIIPSSGYTEYNQNLKDKTTLTADKASSTAYMQLTSLTSEDSAVYYCARQFSLITTGFGYALDYWGQGTSVTVSS VL: DIVMTQSRKFMSTSVGDRVSITCKASQDVSTAVAWYQQKPGQSPKLLLYWASTRHTGVPDRFTGSGSGTDYTLTISSVQAEDLALYYCQQHYSTPLTFGAGTKLELK |  |  | 258000 | 23500 | Inhibition Rate (%) (HEK293/H_CLDN6) (human Claudin 6 [6]): 78.6%; Top MFI (human Claudin 6 [1]): 227; internalization Top RLU (HEK293/H_CLDN6) (human Claudin 6 [7]): 710000 RLU
